Assay results from patent publication US20210388110A1 (published 2021).
Changes are numbered by the printed parent chain.

B1: H0610-G1dh/none-Hi-Kn010G3/L0200-k0 (antibody, human IgG1, kappa)
heavy: not shown
chain: EPKSSDKTHTCPPCPAPELLGGPSVFLFPPKPKDTLMISRTPEVTCVVVDVSHEDPEVKFNWYVDGVEVHNAKTKPREEQYNSTYRVVSVLTVLHQDWLNGKEYKCKVSNKALPAPIEKTISKAKGQPREPQVCTLPPSRDELTKNQVSLWCLVKGFYPSDIAVEWESNGQPENNYKTTPPVLDSDGSFFLYSKLTVDKSRWQQGNVFSCSVMHEALHNRYTQKSLSLSP
light: DIVMTQSPLSLPVTPGEPASISCRPSQSPVHSNRNTYLHWYQQKPGQAPRLLIYKVSNRFSGVPDRFSGSGSGTDFTLKISRVEAEDVGVYYCGQGTQVPYTFGQGTKLEIKRTVAAPSVFIFPPSDEQLKSGTASVVCLLNNFYPREAKVQWKVDNALQSGNSQESVTEQDSKDSTYSLSSTLTLSKADYEKHKVYACEVTHQGLSSPVTKSFNRGEC
notes: single-arm (one Fab)
B2: H0610-G1dh/none-Hi-Kn010G3/L0217-k0 (antibody, human IgG1, kappa)
heavy: not shown
chain: B1 chain
light: B1 light with P29L, S61R
notes: single-arm (one Fab)
B3: H0610-G1dh/none-Hi-Kn010G3/L0215-k0 (antibody, human IgG1, kappa)
heavy: not shown
chain: B1 chain
light: B1 light with P25S, S28P, L38I
notes: single-arm (one Fab)
B4: H0610-G1dh/none-Hi-Kn010G3/L0218-k0 (antibody, human IgG1, kappa)
heavy: not shown
chain: B1 chain
light: B1 light with P25S, P29L, S61R, G94Y
notes: single-arm (one Fab)
B5: H0610-G1dh/none-Hi-Kn010G3/L0208-k0 (antibody, human IgG1, kappa)
heavy: not shown
chain: B1 chain
light: B1 light with P25S, S61W, G94Y
notes: single-arm (one Fab)
B6: H0610-G1dh/none-Hi-Kn010G3/L0213-k0 (antibody, human IgG1, kappa)
heavy: not shown
chain: B1 chain
light: B1 light with P25S, L38I, S61R
notes: single-arm (one Fab)
B7: H0610-G1dh/none-Hi-Kn010G3/L0206-k0 (antibody, human IgG1, kappa)
heavy: not shown
chain: B1 chain
light: B1 light with P25S, G94Y
notes: single-arm (one Fab)
B8: H0610-G1dh/none-Hi-Kn010G3/L0203-k0 (antibody, human IgG1, kappa)
heavy: not shown
chain: B1 chain
light: B1 light with P25S, L38I
notes: single-arm (one Fab)
B9: H0610-G1dh/none-Hi-Kn010G3/L0216-k0 (antibody, human IgG1, kappa)
heavy: not shown
chain: B1 chain
light: B1 light with P25S, S28P, P29L, S61R
notes: single-arm (one Fab)
B10: H0610-G1dh/none-Hi-Kn010G3/L0214-k0 (antibody, human IgG1, kappa)
heavy: not shown
chain: B1 chain
light: B1 light with P25S, S28P, S61R
notes: single-arm (one Fab)
B11: H0610-G1dh/none-Hi-Kn010G3/L0205-k0 (antibody, human IgG1, kappa)
heavy: not shown
chain: B1 chain
light: B1 light with P25S, S61W
notes: single-arm (one Fab)
B12: H0610-G1dh/none-Hi-Kn010G3/L0202-k0 (antibody, human IgG1, kappa)
heavy: not shown
chain: B1 chain
light: B1 light with P25S, N35W
notes: single-arm (one Fab)
B13: H0610-G1dh/none-Hi-Kn010G3/L0212-k0 (antibody, human IgG1, kappa)
heavy: not shown
chain: B1 chain
light: B1 light with G94Y
notes: single-arm (one Fab)
B14: H0610-G1dh/none-Hi-Kn010G3/L0209-k0 (antibody, human IgG1, kappa)
heavy: not shown
chain: B1 chain
light: B1 light with P25S, L38I, G94Y
notes: single-arm (one Fab)
B15: H0610-G1dh/none-Hi-Kn010G3/L0204-k0 (antibody, human IgG1, kappa)
heavy: not shown
chain: B1 chain
light: B1 light with P25S, S61R
notes: single-arm (one Fab)
B16: H0610-G1dh/none-Hi-Kn010G3/L0201-k0 (antibody, human IgG1, kappa)
heavy: not shown
chain: B1 chain
light: B1 light with P25S, S28P
notes: single-arm (one Fab)
B17: H0610-G1dh/none-Hi-Kn010G3/L0211-k0 (antibody, human IgG1, kappa)
heavy: not shown
chain: B1 chain
light: B1 light with P25S, S28P, G94Y
notes: single-arm (one Fab)

Target: T1, soluble human GPC3 (human, UniProt P51654 25-563, limits assumed)
T1 construct: soluble human GPC3 as analyte; also called glypican 3
T1 sequence (P51654 other isoform, or with tags, fused parts or gaps limits assumed, form in doubt): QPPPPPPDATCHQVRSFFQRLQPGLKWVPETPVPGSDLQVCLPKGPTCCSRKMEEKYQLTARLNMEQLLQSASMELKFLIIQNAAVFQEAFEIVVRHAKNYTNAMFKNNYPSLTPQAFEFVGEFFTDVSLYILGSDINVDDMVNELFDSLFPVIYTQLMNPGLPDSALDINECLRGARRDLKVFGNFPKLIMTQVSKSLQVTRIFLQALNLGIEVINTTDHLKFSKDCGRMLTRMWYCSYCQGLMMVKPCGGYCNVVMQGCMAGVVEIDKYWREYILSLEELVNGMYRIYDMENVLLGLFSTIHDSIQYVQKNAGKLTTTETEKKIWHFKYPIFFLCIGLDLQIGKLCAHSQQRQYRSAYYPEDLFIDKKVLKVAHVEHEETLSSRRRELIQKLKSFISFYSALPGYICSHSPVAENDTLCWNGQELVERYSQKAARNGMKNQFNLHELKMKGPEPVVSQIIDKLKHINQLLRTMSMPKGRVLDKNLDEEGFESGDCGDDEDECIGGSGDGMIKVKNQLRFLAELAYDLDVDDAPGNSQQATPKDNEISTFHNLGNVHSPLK
Test: SPR (Biacore), soluble human GPC3

Binder | Kd [nM]
B1 | 1.04
B2 | 1.79
B3 | 1.64
B4 | 1.99
B5 | 0.53
B6 | 1.25
B7 | 0.865
B8 | 2.11
B9 | 1.86
B10 | 0.657
B11 | 1.01
B12 | 1.22
B13 | 0.994
B14 | 1.12
B15 | 0.727
B16 | 1.13
B17 | 0.647
